According to patent US20030133907A1:

The substances below were run against T1, IFNG receptors on HeLa cells (UniProt P15260) (assay: cell-based or functional assay).
T1 sequence (looked up): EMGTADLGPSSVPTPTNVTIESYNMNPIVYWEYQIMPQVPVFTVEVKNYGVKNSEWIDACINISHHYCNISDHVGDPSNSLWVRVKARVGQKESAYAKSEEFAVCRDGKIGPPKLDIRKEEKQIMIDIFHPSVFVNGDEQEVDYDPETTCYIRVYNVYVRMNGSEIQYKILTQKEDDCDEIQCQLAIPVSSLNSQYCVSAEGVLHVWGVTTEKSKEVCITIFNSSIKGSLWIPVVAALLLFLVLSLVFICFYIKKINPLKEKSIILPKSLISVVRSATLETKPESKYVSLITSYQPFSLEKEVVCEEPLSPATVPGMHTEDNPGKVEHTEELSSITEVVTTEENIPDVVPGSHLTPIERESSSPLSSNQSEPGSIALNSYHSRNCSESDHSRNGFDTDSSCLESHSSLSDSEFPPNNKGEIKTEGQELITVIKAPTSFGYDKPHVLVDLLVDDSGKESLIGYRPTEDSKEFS
Substance “E38C + S99T (full-length + 10 kDa mPEG) (from UniProt P01579 24-161) (ligand)” has an Activity relative to non-PEGylated product subjected to “PEGylation procedure” (%), Primary Assay of 41%. “E38C + S99T (full-length) (from UniProt P01579 24-161) (ligand)” gave a % activity of full-length wt (AU/ml basis), Primary Assay of 71%, a % activity of full-length wt (specific activity), Primary Assay of 16% and an Activity (AU/ml), Primary Assay (ISRE-luciferase in HeLa cells), after transient transfection of 1e+07 AU/ml. The Specific activity (AU/mg), Primary Assay (ISRE-luciferase in HeLa cells), after purification was 3.4e+06 AU/mg. With “E38N (full-length) (from UniProt P01579 24-161) (ligand)” the % activity of full-length wt (AU/ml basis), Primary Assay was 100% and the Activity (AU/ml), Primary Assay (ISRE-luciferase in HeLa cells), after transient transfection was 1.4e+07 AU/ml. “E38N + K61T (full-length) (from UniProt P01579 24-161) (ligand)” gave a % activity of full-length wt (AU/ml basis), Primary Assay of 86% and an Activity (AU/ml), Primary Assay (ISRE-luciferase in HeLa cells), after transient transfection of 1.2e+07 AU/ml. In the case of “E38N + K61T + S99T (full-length) (from UniProt P01579 24-161) (ligand)”, the % activity of full-length wt (AU/ml basis), Primary Assay is reported as 10% and the Activity (AU/ml), Primary Assay (ISRE-luciferase in HeLa cells), after transient transfection is reported as 1.4e+06 AU/ml. Substance “E38N + S40T (full-length) (from UniProt P01579 24-161) (ligand)” has a % activity of full-length wt (AU/ml basis), Primary Assay of 71% and an Activity (AU/ml), Primary Assay (ISRE-luciferase in HeLa cells), after transient transfection of 9.9e+06 AU/ml. Substance “E38N + S40T + K94C + S99T (full-length) (from UniProt P01579 24-161) (ligand)” has a % activity of full-length wt (AU/ml basis), Primary Assay of 7% and an Activity (AU/ml), Primary Assay (ISRE-luciferase in HeLa cells), after transient transfection of 940000 AU/ml. “E38N + S40T + N59C + S99T (full-length) (from UniProt P01579 24-161) (ligand)” showed a % activity of full-length wt (AU/ml basis), Primary Assay of 79% and an Activity (AU/ml), Primary Assay (ISRE-luciferase in HeLa cells), after transient transfection of 1.1e+07 AU/ml. “E38N + S40T + N83C + S99T (full-length) (from UniProt P01579 24-161) (ligand)” was tested, and the % activity of full-length wt (AU/ml basis), Primary Assay was 5% and the Activity (AU/ml), Primary Assay (ISRE-luciferase in HeLa cells), after transient transfection was 720000 AU/ml. For “E38N + S40T + S99T (full-length) (from UniProt P01579 24-161) (ligand)”, the % activity of full-length wt (AU/ml basis), Primary Assay was 93%, the % activity of full-length wt (specific activity), Primary Assay was 67% and the Activity (AU/ml), Primary Assay (ISRE-luciferase in HeLa cells), after transient transfection was 1.3e+07 AU/ml. The Specific activity (AU/mg), Primary Assay (ISRE-luciferase in HeLa cells), after purification was 1.4e+07 AU/mg. With “E38N + S40T + S99T (truncated after Leu135) (from UniProt P01579 24-158) (ligand)” the % activity of full-length wt (AU/ml basis), Primary Assay was 29% and the Activity (AU/ml), Primary Assay (ISRE-luciferase in HeLa cells), after transient transfection was 4e+06 AU/ml. For “E38N + S40T + S99T + N104C (full-length) (from UniProt P01579 24-161) (ligand)”, the % activity of full-length wt (AU/ml basis), Primary Assay was 16% and the Activity (AU/ml), Primary Assay (ISRE-luciferase in HeLa cells), after transient transfection was 2.3e+06 AU/ml. “N10C + E38N + S40T + S99T (full-length) (from UniProt P01579 24-161) (ligand)” showed a % activity of full-length wt (AU/ml basis), Primary Assay of 11% and an Activity (AU/ml), Primary Assay (ISRE-luciferase in HeLa cells), after transient transfection of 1.5e+06 AU/ml. “N10C + S99T (full-length + 5 kDa mPEG) (from UniProt P01579 24-161) (ligand)” was tested, and the Activity relative to non-PEGylated product subjected to “PEGylation procedure” (%), Primary Assay was 23%. In the case of “N10C + S99T (full-length) (from UniProt P01579 24-161) (ligand)”, the % activity of full-length wt (AU/ml basis), Primary Assay is reported as 18%, the % activity of full-length wt (specific activity), Primary Assay is reported as 18% and the Activity (AU/ml), Primary Assay (ISRE-luciferase in HeLa cells), after transient transfection is reported as 2.5e+06 AU/ml. The Specific activity (AU/mg), Primary Assay (ISRE-luciferase in HeLa cells), after purification was 3.8e+06 AU/mg. “N16C + E38N + S40T + S99T (full-length) (from UniProt P01579 24-161) (ligand)” gave a % activity of full-length wt (AU/ml basis), Primary Assay of 26% and an Activity (AU/ml), Primary Assay (ISRE-luciferase in HeLa cells), after transient transfection of 3.7e+06 AU/ml. “N16C + S99T (full-length + 5 kDa mPEG) (from UniProt P01579 24-161) (ligand)” was tested, and the Activity relative to non-PEGylated product subjected to “PEGylation procedure” (%), Primary Assay was 59%. With “N16C + S99T (full-length + 10 kDa mPEG) (from UniProt P01579 24-161) (ligand)” the % activity of full-length wt (specific activity), Primary Assay was 6%, the Specific activity (AU/mg), Primary Assay (ISRE-luciferase in HeLa cells), after purification was 1.3e+06 AU/mg and the specific activity relative to the corresponding non-PEGylated IFNG variant, Primary Assay was 15%. Work on “N16C + S99T (full-length) (from UniProt P01579 24-161) (ligand)” yielded a % activity of full-length wt (AU/ml basis), Primary Assay of 79%, a % activity of full-length wt (specific activity), Primary Assay of 11% and an Activity (AU/ml), Primary Assay (ISRE-luciferase in HeLa cells), after transient transfection of 1.1e+07 AU/ml. For the same substance, the Specific activity (AU/mg), Primary Assay (ISRE-luciferase in HeLa cells), after purification was 2.3e+06 AU/mg. “N59C + S99T (full-length + 5 kDa mPEG) (from UniProt P01579 24-161) (ligand)” gave a % activity of full-length wt (specific activity), Primary Assay of 11%, a Specific activity (AU/mg), Primary Assay (ISRE-luciferase in HeLa cells), after purification of 2.4e+06 AU/mg and a specific activity relative to the corresponding non-PEGylated IFNG variant, Primary Assay of 15%. For “N59C + S99T (full-length) (from UniProt P01579 24-161) (ligand)”, the % activity of full-length wt (specific activity), Primary Assay was 30% and the Specific activity (AU/mg), Primary Assay (ISRE-luciferase in HeLa cells), after purification was 6.3e+06 AU/mg. “S99T (full-length) (from UniProt P01579 24-161) (ligand)” gave a % activity of full-length wt (AU/ml basis), Primary Assay of 36%, a % activity of full-length wt (specific activity), Primary Assay of 105% and an Activity (AU/ml), Primary Assay (ISRE-luciferase in HeLa cells), after transient transfection of 5.1e+06 AU/ml. For the same substance, the Specific activity (AU/mg), Primary Assay (ISRE-luciferase in HeLa cells), after purification was 2.2e+07 AU/mg. In the case of “S99T (truncated after Leu135) (from UniProt P01579 24-158) (ligand)”, the % activity of full-length wt (AU/ml basis), Primary Assay is reported as 25% and the Activity (AU/ml), Primary Assay (ISRE-luciferase in HeLa cells), after transient transfection is reported as 3.5e+06 AU/ml. “S99T + N104C (full-length + 5 kDa mPEG) (from UniProt P01579 24-161) (ligand)” showed an Activity relative to non-PEGylated product subjected to “PEGylation procedure” (%), Primary Assay of 42%. “S99T + N104C (full-length) (from UniProt P01579 24-161) (ligand)” was tested, and the % activity of full-length wt (AU/ml basis), Primary Assay was 36%, the % activity of full-length wt (specific activity), Primary Assay was 17% and the Activity (AU/ml), Primary Assay (ISRE-luciferase in HeLa cells), after transient transfection was 5e+06 AU/ml. For the same substance, the Specific activity (AU/mg), Primary Assay (ISRE-luciferase in HeLa cells), after purification was 3.5e+06 AU/mg. Substance “Wild-type (full-length) rhuIFNG (from UniProt P01579 24-161) (ligand)” has an Activity (AU/ml), Primary Assay (ISRE-luciferase in HeLa cells), after transient transfection of 1.4e+07 AU/ml and a Specific activity (AU/mg), Primary Assay (ISRE-luciferase in HeLa cells), after purification of 2.1e+07 AU/mg. In the case of “Wild-type (truncated after Leu135) (from UniProt P01579 24-158) (ligand)”, the % activity of full-length wt (AU/ml basis), Primary Assay is reported as 45% and the Activity (AU/ml), Primary Assay (ISRE-luciferase in HeLa cells), after transient transfection is reported as 6.3e+06 AU/ml.
